According to the supplement of paper PMC9170038:

System: MS2 coat protein
Assay: apparent KD of MS2 coat protein; designed switch direction (-1 OFF switch, 1 ON switch): -1; higher = weaker reporter binding
How it was run: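 On Illumina chips, designed RNA switches with common flanks were made by stalled E. coli RNA polymerase. Titrations with SNAP-549-labelled MS2 coat protein, doubling from 0.7 or 1.5 nM to 3 µM, were done with no input, with 200 uM small-molecule ligand, or with an oligonucleotide input. Apparent KD is the median per design over clusters, from curve fits of normalised cluster fluorescence.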

[1] = input ligand: microRNA oligo, concentration not stated
[2] = Eterna round: R95, input ligand: microRNA oligo, concentration not stated
[3] = Eterna round: R95, input ligand: FMN 200 uM
[4] = Eterna round: R95, input ligand: none

Sequence	apparent KD of MS2 coat protein (input ligand: FMN 200 uM)	apparent KD of MS2 coat protein (input ligand: none)	apparent KD of MS2 coat protein [2]	further results
CAUGUUUGUCGUUGAUCCAACAUGAGGAUCACCCAUGUCUCUUUAGCUUUUUGCUCGUCUUAUCCUCCUUUGUUCAC [JR_STOV1_v2_Sub0101] (Eterna round: R97, puzzle: Sensor, turn-off variant 1)	0.0655 µM	0.401 µM	–	–
GCGCACCUACCAAAAGGUAGGCUAACAUGAGGAUCACCCAUGUAGGAUAUCGAUUGCUUUGCAGUCGAGAAGGACAUGAUGCGC [JL ENG3 3.80 Mod 11] (Eterna round: R96, puzzle: Exclusion NG 3)	0.0732 µM	0.03 µM	–	apparent KD of MS2 coat protein [1]: 0.0214 µM
UAUUUAGCAAGCAGAUCCCACAUGAGGAUCACCCAUGUUCUCUGAACGUACAGAAUUACUGUACGAGCUCGUCUUAU [Winner reversed engineered 30] (Eterna round: R97, puzzle: Sensor, turn-off variant 1)	0.352 µM	0.352 µM	–	–
CGAACUGUCUAGGAUAUACUCCCAUGCAGUUGAGUAGAAGGAGACACAUGAGGAUCACCCAUGUGACCCGAAGU [EX6 C.12] (Eterna round: R97, puzzle: Exclusion 6)	0.0253 µM	0.0197 µM	–	–
GUGUAGAGAGGAUAUACAUGAGGAUCACCCAUGUGAAUAAGAUAGAAUAAGAUAAAGUGUAGAAGGCUUAGUGU [Excluse me!!! 20 - Jieux - Exclusion 3] (puzzle: Exclusion 3)	–	–	0.0318 µM	–
CUCAUGUGAGGAUAUCACAUAGCGUCACGGCUGUAACAUUUUGAGAAGGCACAUGAGGAUCACCCAUGUGACAC [Eternabot (L2) Solution 79] (Eterna round: R97, puzzle: Exclusion 4)	0.104 µM	0.0466 µM	–	–
GUUAAUUGUGACAUGGGUGACAUGAGGAUCACCCAUGUCACAAGCUUUUUGUUCGUCUUAUAAUUAACCCAUGUCAC [Stov1/13-B2] (Eterna round: R97, puzzle: Sensor, turn-off variant 1)	0.0798 µM	0.0948 µM	–	–
UUGUUGUAUGUAGGAUAUGCAUAUUGUUAUUAUGCAGAAGGACAUGAGGAUCACCCAUGUAUAUUAUUAUUAUAUAUUAUAUAU [Title] (Eterna round: R96, puzzle: Exclusion NG 1)	–	–	–	apparent KD of MS2 coat protein [1]: 0.0209 µM
GCCAUGUCAGGAUAUGCUUCAAAGCACGUACAGAGCUUGAAGUAGAAGGGACAUGAGGAUCACCCAUGUGCCUA [Eternabot (L1) Solution 80] (Eterna round: R97, puzzle: Exclusion 4)	0.0402 µM	0.02 µM	–	–
CUAAUUCGAGGAUAUGCAAUGGAGUCUUUAAUAUAGUUCUCACAUGAGGAUCACCCAUGUAGAAGGCGAGCGGG [Eternabot (L1) Solution 50] (Eterna round: R97, puzzle: Exclusion 2)	0.115 µM	0.0531 µM	–	–
AAUGGGUGUGUGAGGAUAUACGAUGGCAGUUGCCAGUAGAAGGUACAUGAGGAUCACCCAUGUGUCCAAAAGUG [Aquin] (puzzle: Brourd's mod of Exclusion 4)	–	–	0.0119 µM	–
CAGAAACAUGAGGAUCACCCAUGUGAGGAUAUGAAAAAGAAAAGAAAAGAAAGAAGAAUCAGAAGGCACAAAGU [salish99-ex1_r3_086] (puzzle: Exclusion 1)	–	–	0.0324 µM	apparent KD of MS2 coat protein [3]: 0.0368 µM; apparent KD of MS2 coat protein [4]: 0.0357 µM
GGUUGGCGAGGAUAUACAUGAGGAUCACCCAUGUGAGAGAAAAAAGUGAGUAAGAAAAGUAGAAGGCGCUGACG [salish99-ex3-33] (Eterna round: R96, puzzle: Exclusion 3)	0.401 µM	0.0473 µM	–	apparent KD of MS2 coat protein [1]: 0.051 µM
UAUAUAUAGUAAGGAUAUGUAUUUCUUUUAUAAACAGAAGGUACUGACAUGAGGAUCACCCAUGUUUUAGUGUGGGCAUGUAGA [JMF's solution 12] (Eterna round: R96, puzzle: Exclusion NG 1)	–	–	–	apparent KD of MS2 coat protein [1]: 0.0631 µM
CACUAACAUGAGGAUCACCCAUGUUAGGAUAUGCAGUUCGGCCAACGGGCCCGAACAUGUAGAAGGAACAGGGU [Eternabot (L2) Solution 44] (Eterna round: R97, puzzle: Exclusion 1)	0.0813 µM	0.0258 µM	–	–
UAUCUAUGAGGAUAUCAUAGUAGUUACAUGAGGAUCACCCAUGUCAUGACAGAACUGGGAUGAGAAGGCAUUCGUU [Eternabot (L2) Solution 73] (Eterna round: R97, puzzle: Exclusion 5)	0.291 µM	0.447 µM	–	–
AAUACAAGCUAUUGAUCCCACAUGAGGAUCACCCAUGUAGGAGGCCGUGAGACCUCCUUUACGAUAGCUCGUCUUAU [Sensor-V1 #52] (Eterna round: R97, puzzle: Sensor, turn-off variant 1)	0.211 µM	0.208 µM	–	–
UUUUUGUGAGGAUAUACGUAGUAGAACAAUAGUACUACUACGUAGAAGGCACAUGAGGAUCACCCAUGUUCCUC [Fiskers Ex 4 Super stable 44 mod 14] (puzzle: Exclusion 4)	–	–	0.0452 µM	–

Sequence	apparent KD of MS2 coat protein (input ligand: FMN 200 uM)	apparent KD of MS2 coat protein (input ligand: none)	apparent KD of MS2 coat protein [2]	further results
CUUUUGUGAGGAUAUCAGUAGUAAAAAUAUAAAAUUACUACUGAGAAGGCACAUGAGGAUCACCCAUGUUCCUC [salish99_ex4_r3_020] (puzzle: Exclusion 4)	–	–	0.0372 µM	–
UAUGGGUCUACAGGAUAUUCCAGUAGAUAGAAGGGAGAAGGGUGGGCCUAUACUUGAGGAUCACCCAAGUGAAAAGGGUCAUCC [Mutated MS2 EX1.13] (Eterna round: R96, puzzle: Exclusion NG 1)	0.0279 µM	0.0366 µM	–	apparent KD of MS2 coat protein [1]: 0.0248 µM
UGUUGUUACGCAGGAUAUGAGGAUCACCCAUAUCAGGAUAUCGAAAGAGAACUUCUGAGGAUCACCCAGAAGGGCGGGUUAACA [pwkr exNG2 2xF5 2xFMN.38] (Eterna round: R96, puzzle: Exclusion NG 2)	0.0169 µM	0.0212 µM	–	apparent KD of MS2 coat protein [1]: 0.0136 µM
GACAGUUCGGAGGAUAUCCAGAACUAAGAACAAGGAGAAGGCCGAACAUGAGGAUCACCCAUGUGUGUUCCCAU [Isdiorzaar] (puzzle: Exclusion 6)	–	–	0.0307 µM	apparent KD of MS2 coat protein [3]: 0.0194 µM; apparent KD of MS2 coat protein [4]: 0.027 µM
AGCUGACGAGGAUAUACAUGAGGAUCACCCAUGUUGGUUCAGCGACGAUAGUCGCAAUGUAGAAGGCGUCAGCU [E3/9-A1] (Eterna round: R97, puzzle: Exclusion 3)	0.0774 µM	0.496 µM	–	–
GGAGAGAGAGGAUAUGGAGGAAAGAACAUGAGGAUCACCCAUGUAGAGCCUCAAGAUCGACCAGAAGGCUCAGUCC [AK-MS2ROC-r4-exclusion5-10] (Eterna round: R97, puzzle: Exclusion 5)	0.15 µM	0.0275 µM	–	–
UAUCCACAUGAGGAUCACCCAUGUGAGGAUAUGUCCAUAUUCGGCAAAUCGGAUAUGGACAGAAGGCACACCGG [JR_Exclusion1_Sub011] (puzzle: Exclusion 1)	–	–	0.0354 µM	–
AAGAAACAUGAGGAUCACCCAUGUGAGGAUAUGAGGAAGAAAAGAAAAGAAAGAAGAAUCAGAAGGCACAAAGG [salish99-ex1_r3_049] (puzzle: Exclusion 1)	–	–	0.0365 µM	apparent KD of MS2 coat protein [3]: 0.0563 µM; apparent KD of MS2 coat protein [4]: 0.0436 µM
AAUAACAGAGGAUAUACUAUUUUAUGUGUUUAUUGUUUUAAACAUGAGGAUCACCCAUGUAGAAGGCUGAAUGA [JMF 59] (puzzle: Exclusion 2)	–	–	0.0344 µM	–
UUCUAACGAGGAUAUCGAUGGUGGAACAUGAGGAUCACCCAUGUAUGAGAUAUUGUAGUUCGAGAAGGCGUUCAGU [JR_E5_Sub057] (puzzle: Exclusion 5)	–	–	0.0366 µM	–
UAUUAGCAAGUAAGAUCCCACAUGAGGAUCACCCAUGUGCUCGUCUUAUAAGGUACUGUGACGAAAGUCACGGUACC [Sensor 3, v1 - 88] (puzzle: Sensor v3, turn-off variant 1)	–	–	1.04 µM	apparent KD of MS2 coat protein [3]: 0.0126 µM; apparent KD of MS2 coat protein [4]: 0.0165 µM
GAGAAACAUGAGGAUCACCCAUGUGAGGAUAUGAAAAAGAAAAGAAAAGAAAGAAGAAUCAGAAGGCACAAAGA [salish99-ex1_r3_084] (puzzle: Exclusion 1)	–	–	0.0279 µM	apparent KD of MS2 coat protein [3]: 0.0281 µM; apparent KD of MS2 coat protein [4]: 0.0389 µM
AAUAACAGAGGAUAUACUAUUUUAUGUGUUUGUUGUUUUAAACAUGAGGAUCACCCAUGUAGAAGGCUGAUUGA [JMF 74] (puzzle: Exclusion 2)	–	–	0.0311 µM	–
UAUCCGACAGGAUAUACAUGAGGAUCACCCAUGUACCCACUGUAUGUAACCUCAAACUGUAGAAGGGUUGAUAU [Eternabot (L1) Solution 18] (Eterna round: R97, puzzle: Exclusion 3)	0.0212 µM	0.0286 µM	–	–
GGUUGGCGAGGAUAUACAUGAGGAUCACCCAUGUGGUCCUGUGGCUGGAAAAACCUUUGUAGAAGGCGCGGGUC [salish99_ex3_r4_028] (Eterna round: R97, puzzle: Exclusion 3)	0.258 µM	0.184 µM	–	–
UAAGCUCUGUCAGGAUAUCCCUGUAAACGCAACGGAGAAGGGACAUGAGGAUCACCCAUGUGCGGGCCCAACGCGCUUGGGUCC [Gelaisve] (Eterna round: R96, puzzle: Exclusion NG 1)	0.0566 µM	0.0263 µM	–	apparent KD of MS2 coat protein [1]: 0.0206 µM
CUUUUGUGAGGAUAUUAGUAUUAAAUAAAUAAAAUUACUACUGAGAAGGCACAUGAGGAUCACCCAUGUUCCUC [salish99_ex4_r3_050] (puzzle: Exclusion 4)	–	–	0.0336 µM	–
AGCGAGACAGGAUAUACUUGAGGAUCACCCAAGUCACAAAGGGUCUCACUCUUCACUAGUAGAAGGGUCGUGUA [Lereer] (Eterna round: R97, puzzle: Exclusion 3)	0.0241 µM	0.0187 µM	–	–
